Assays:
AncSZ = assay: phosphorylation enrichment, bacterial display (enrichment ratio); higher = better substrate or ligand; peptides without Tyr show the background
EPHB1 = EPHB1 (UniProt P54762); assay: as above
EPHB2 = EPHB2 (UniProt P29323); assay: as above
FGFR1 = FGFR1 (UniProt P11362); assay: as above
FGFR3 = FGFR3 (UniProt P22607); assay: as above
Fer (mouse) = assay: as above
Fes = Fes (UniProt P07332); assay: as above
Fyn = Fyn (UniProt P06241); assay: as above
Hck = Hck (UniProt P08631); assay: as above
Hck, sequence (P08631 whole entry, looked up): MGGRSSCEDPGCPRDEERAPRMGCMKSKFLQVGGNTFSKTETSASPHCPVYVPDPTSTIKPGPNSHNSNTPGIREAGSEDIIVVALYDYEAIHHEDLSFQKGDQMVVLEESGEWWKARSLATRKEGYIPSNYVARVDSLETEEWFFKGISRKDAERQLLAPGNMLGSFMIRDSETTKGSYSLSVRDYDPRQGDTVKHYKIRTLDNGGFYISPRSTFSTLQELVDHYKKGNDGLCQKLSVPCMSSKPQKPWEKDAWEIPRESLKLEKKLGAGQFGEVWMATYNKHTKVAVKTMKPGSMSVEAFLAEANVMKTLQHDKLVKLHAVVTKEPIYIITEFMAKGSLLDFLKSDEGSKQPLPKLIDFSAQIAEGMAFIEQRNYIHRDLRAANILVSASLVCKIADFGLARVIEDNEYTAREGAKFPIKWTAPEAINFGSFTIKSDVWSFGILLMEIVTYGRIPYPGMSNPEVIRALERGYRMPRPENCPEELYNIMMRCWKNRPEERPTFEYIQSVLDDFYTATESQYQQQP

Jak2 = Jak2 (UniProt O60674); assay: as above
MERTK = MERTK (UniProt Q12866); assay: as above
MERTK, sequence (Q12866 whole entry, looked up): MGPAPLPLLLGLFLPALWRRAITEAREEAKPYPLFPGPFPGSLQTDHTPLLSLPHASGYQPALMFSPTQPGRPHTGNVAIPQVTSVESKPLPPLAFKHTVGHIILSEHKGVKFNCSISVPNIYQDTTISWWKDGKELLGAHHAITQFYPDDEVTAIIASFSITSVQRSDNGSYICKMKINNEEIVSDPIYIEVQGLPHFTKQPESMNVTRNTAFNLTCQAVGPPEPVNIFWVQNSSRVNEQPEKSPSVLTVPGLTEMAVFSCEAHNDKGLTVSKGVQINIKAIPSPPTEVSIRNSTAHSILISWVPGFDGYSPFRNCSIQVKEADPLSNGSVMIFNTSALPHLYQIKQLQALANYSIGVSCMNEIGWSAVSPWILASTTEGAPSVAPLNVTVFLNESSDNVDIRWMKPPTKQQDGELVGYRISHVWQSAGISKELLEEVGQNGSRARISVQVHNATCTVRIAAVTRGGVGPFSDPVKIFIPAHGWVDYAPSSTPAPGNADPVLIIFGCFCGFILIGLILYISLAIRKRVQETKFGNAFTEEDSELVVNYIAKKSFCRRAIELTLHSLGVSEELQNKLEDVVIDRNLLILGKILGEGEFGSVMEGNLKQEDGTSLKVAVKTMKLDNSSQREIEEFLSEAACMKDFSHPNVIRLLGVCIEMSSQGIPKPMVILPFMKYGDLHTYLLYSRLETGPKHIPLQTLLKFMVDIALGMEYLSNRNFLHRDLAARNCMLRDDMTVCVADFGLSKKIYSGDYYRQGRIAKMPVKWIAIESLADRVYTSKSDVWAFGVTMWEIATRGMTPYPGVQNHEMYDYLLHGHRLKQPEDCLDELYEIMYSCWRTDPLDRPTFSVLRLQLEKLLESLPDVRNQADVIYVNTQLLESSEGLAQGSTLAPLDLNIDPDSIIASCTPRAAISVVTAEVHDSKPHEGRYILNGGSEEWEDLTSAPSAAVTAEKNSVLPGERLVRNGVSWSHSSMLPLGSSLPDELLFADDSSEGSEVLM

c-Abl (mouse) = assay: as above
c-Src = assay: as above
Grb2 SH2 = Grb2 SH2 (UniProt P62993); assay: SH2 binding enrichment of the phosphorylated peptide, bacterial display (enrichment ratio); higher = better substrate or ligand; peptides without Tyr show the background
Grb2 SH2, sequence (P62993 whole entry, looked up): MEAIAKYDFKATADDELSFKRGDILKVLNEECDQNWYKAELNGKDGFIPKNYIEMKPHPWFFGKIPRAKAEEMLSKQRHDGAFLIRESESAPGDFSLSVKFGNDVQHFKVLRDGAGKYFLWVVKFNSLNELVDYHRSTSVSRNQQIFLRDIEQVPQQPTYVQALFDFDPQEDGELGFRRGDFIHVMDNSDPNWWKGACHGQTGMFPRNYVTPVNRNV

SHP2-C SH2 = assay: as above
c-Src SH2 = assay: as above
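Throughout, for SH2 binding enrichment of the phosphorylated peptide, bacterial display: peptide library displayed on the E. coli surface as eCPX fusions, selected cells deep-sequenced, score is each peptide's frequency after selection divided by its frequency in the input.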
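Throughout, for phosphorylation enrichment, bacterial display: 11-residue human phosphosite peptides and single-mutation variants displayed on the E. coli surface, counted by deep sequencing, each peptide's frequency after selection divided by its frequency in the unselected input library; frequency after pTyr selection over input frequency; kinase dosed for 20-30% of maximal phosphorylation in three min.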

EPHB1, sequence (P54762 whole entry, looked up): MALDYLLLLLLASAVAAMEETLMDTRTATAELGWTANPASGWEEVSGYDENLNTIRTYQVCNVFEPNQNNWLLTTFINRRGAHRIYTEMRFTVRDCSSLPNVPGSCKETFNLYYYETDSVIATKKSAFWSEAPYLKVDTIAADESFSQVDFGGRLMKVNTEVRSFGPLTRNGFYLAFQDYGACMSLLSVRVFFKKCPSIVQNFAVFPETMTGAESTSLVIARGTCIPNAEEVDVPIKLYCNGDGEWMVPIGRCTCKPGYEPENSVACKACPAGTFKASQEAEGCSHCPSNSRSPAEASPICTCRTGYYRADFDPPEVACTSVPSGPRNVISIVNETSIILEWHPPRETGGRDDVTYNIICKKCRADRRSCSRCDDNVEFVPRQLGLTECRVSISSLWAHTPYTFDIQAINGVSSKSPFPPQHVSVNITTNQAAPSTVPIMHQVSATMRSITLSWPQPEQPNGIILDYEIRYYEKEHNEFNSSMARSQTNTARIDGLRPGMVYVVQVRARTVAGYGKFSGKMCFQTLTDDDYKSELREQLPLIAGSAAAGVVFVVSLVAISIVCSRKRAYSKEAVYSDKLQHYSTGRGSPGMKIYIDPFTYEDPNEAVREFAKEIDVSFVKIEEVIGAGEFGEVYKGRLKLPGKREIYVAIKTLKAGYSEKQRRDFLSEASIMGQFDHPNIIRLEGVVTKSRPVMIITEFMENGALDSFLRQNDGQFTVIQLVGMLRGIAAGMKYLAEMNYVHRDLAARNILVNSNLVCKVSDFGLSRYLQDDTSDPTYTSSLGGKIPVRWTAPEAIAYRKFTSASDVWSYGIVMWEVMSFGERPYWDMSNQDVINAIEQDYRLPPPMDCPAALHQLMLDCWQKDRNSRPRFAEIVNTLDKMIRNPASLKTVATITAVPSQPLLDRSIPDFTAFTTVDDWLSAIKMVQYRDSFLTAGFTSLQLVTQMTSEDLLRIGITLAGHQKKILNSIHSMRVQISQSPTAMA
EPHB2, sequence (P29323 whole entry, looked up): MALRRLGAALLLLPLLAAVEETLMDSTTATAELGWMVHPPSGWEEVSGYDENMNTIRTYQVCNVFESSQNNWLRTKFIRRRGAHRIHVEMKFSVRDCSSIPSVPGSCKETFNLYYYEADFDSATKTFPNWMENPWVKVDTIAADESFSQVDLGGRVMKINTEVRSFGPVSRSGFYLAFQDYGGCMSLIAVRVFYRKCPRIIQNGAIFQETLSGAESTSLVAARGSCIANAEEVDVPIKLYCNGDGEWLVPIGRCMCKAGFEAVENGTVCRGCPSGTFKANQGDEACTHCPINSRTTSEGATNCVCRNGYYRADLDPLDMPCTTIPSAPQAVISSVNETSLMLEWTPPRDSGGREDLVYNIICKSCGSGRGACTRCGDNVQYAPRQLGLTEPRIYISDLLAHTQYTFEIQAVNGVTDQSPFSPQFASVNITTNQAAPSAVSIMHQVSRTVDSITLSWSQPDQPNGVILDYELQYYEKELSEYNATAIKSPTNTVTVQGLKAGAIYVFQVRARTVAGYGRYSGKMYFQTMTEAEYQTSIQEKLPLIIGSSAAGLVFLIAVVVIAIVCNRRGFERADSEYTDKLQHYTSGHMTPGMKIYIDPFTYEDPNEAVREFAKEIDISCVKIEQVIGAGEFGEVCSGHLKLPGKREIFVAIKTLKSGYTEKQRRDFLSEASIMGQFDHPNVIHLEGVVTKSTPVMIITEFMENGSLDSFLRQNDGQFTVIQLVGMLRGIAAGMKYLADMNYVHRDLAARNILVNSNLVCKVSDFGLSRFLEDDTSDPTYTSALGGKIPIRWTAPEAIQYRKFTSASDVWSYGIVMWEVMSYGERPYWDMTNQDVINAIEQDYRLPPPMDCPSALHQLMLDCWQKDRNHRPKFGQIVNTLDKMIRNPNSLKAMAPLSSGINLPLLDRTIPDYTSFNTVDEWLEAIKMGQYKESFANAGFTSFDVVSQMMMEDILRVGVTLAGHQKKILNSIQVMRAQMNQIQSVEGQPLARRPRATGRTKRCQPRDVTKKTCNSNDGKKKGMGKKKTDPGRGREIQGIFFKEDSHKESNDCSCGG
Fes, sequence (P07332 whole entry, looked up): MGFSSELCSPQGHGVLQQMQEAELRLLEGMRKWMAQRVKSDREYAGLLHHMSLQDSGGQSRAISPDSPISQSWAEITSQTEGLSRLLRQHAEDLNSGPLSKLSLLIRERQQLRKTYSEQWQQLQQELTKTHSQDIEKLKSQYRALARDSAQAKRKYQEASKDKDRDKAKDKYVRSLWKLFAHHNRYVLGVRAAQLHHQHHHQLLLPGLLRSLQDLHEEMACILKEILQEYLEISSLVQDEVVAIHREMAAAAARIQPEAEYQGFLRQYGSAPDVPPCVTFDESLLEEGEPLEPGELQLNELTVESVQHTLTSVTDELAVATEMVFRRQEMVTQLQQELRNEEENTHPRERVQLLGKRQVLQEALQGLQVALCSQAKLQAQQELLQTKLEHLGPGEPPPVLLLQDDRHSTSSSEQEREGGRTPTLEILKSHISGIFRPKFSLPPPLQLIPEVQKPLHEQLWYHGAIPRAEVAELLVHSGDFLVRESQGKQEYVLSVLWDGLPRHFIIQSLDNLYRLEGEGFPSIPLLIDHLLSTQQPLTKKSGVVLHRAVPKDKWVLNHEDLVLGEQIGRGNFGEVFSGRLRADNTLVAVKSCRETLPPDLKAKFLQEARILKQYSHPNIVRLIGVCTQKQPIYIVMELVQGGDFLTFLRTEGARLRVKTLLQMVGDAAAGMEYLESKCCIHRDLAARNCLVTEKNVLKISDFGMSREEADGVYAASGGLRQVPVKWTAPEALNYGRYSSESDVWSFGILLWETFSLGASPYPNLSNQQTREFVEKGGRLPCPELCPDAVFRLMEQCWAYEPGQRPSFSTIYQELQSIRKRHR

Row | Sequence | phosphorylation enrichment (AncSZ) | phosphorylation enrichment (EPHB1) | phosphorylation enrichment (EPHB2) | phosphorylation enrichment (FGFR1) | phosphorylation enrichment (FGFR3) | phosphorylation enrichment (Fer (mouse)) | phosphorylation enrichment (Fes) | phosphorylation enrichment (Fyn) | phosphorylation enrichment (Hck) | phosphorylation enrichment (Jak2) | phosphorylation enrichment (MERTK) | phosphorylation enrichment (c-Abl (mouse)) | phosphorylation enrichment (c-Src) | SH2 binding enrichment (Grb2 SH2) | SH2 binding enrichment (SHP2-C SH2) | SH2 binding enrichment (c-Src SH2)
1 | QCTSAHPLQPE [NANS_Y188_Y188H] | 1.25 | 1.07 | 0.923 | 0.966 | 0.961 | 0.726 | 1.73 | 0.601 | 0.771 | 1.28 | 0.449 | 1.09 | 0.461 | 0.672 | 0.465 | 0.594
2 | ESMNTYLQTSP [NAT1_Y208] | 1 | 0.584 | 0.511 | 0.584 | 0.664 | 0.539 | 0.947 | 0.469 | 0.655 | 0.825 | 0.412 | 0.693 | 0.477 | 0.642 | 0.795 | 0.471
3 | NVVNEYSSELE [FGB_Y172] | 1.19 | 0.611 | 0.627 | 0.565 | 0.769 | 0.515 | 1.25 | 0.515 | 0.628 | 0.99 | 0.422 | 0.717 | 0.482 | 0.932 | 0.463 | 0.556
4 | SKGYAYVHFDS [PABPC5_Y149] | 1.22 | 0.575 | 0.561 | 0.632 | 0.749 | 0.584 | 1.25 | 0.449 | 0.53 | 1.05 | 0.37 | 0.953 | 0.479 | 0.991 | 29.3 | 11.1
5 | ILILKYPIEHG [ACTA1_Y71_T68I] | 1.07 | 0.612 | 0.479 | 0.525 | 0.807 | 0.694 | 1.29 | 0.39 | 0.488 | 1.11 | 0.424 | 0.818 | 0.491 | 2.07 | 1.72 | 1.58
6 | SLDLSYFPTSS [EMD_Y181_YF] | 0.879 | 0.426 | 0.513 | 0.59 | 0.635 | 0.353 | 0.793 | 0.496 | 0.432 | 2.93 | 0.56 | 0.632 | 0.502 | 0.8 | 1.1 | 0.414
7 | PRQRRYVYYYS [PTEN_Y174_S170R] | 1.05 | 0.656 | 1.02 | 0.753 | 0.929 | 0.904 | 0.683 | 0.882 | 0.911 | 0.979 | 0.877 | 0.769 | 0.728 | 0.909 | 0.839 | 0.413
8 | CPYNLYAEQLS [HGD_Y40] | 1.74 | 2.68 | 2.18 | 0.741 | 0.988 | 1.36 | 1.34 | 3.15 | 2.39 | 1.39 | 2.67 | 0.936 | 6.33 | 0.905 | 0.737 | 0.705
9 | FNSLPYQVPTS [CALCOCO2_Y358] | 0.942 | 0.464 | 0.504 | 0.431 | 0.578 | 1.36 | 0.63 | 0.467 | 0.56 | 0.611 | 1.34 | 2.56 | 0.561 | 1.12 | 0.871 | 0.843
10 | TACNPYKPPGP | 0.605 | 0.733 | 0.417 | 0.354 | 0.437 | 0.449 | 0.717 | 0.469 | 0.384 | 0.521 | 0.393 | 1.14 | 0.46 | 1.07 | 0.838 | 0.786
11 | RIFDYYSARKA [STOX1_Y858] | 0.959 | 0.499 | 0.656 | 0.614 | 0.612 | 0.7 | 1.28 | 0.713 | 0.792 | 1.16 | 0.582 | 1.08 | 1.1 | 1.48 | 0.648 | 0.469
12 | LKKKQYTSIHH [APP_Y728] | 0.631 | 0.739 | 0.605 | 0.631 | 0.903 | 0.688 | 0.787 | 0.92 | 0.869 | 0.949 | 0.508 | 1.39 | 1.03 | 1.53 | 2.63 | 1.89
13 | NVSILYTASQA [CTNNA1_Y222_P219S] | 0.892 | 0.548 | 0.51 | 0.434 | 0.725 | 0.629 | 1.02 | 0.447 | 0.547 | 0.95 | 0.505 | 0.787 | 0.531 | 0.921 | 0.685 | 0.499
14 | SVSNNYIQTLG [CTNND1_Y174] | 0.606 | 0.491 | 0.426 | 0.476 | 0.585 | 0.451 | 0.658 | 0.432 | 0.417 | 0.508 | 0.621 | 0.637 | 0.445 | 0.846 | 0.803 | 0.638
15 | LEQQKYTVTID [IKBKB_Y199_V203I] | 1.27 | 0.932 | 0.81 | 0.75 | 0.975 | 0.518 | 1.57 | 0.638 | 0.682 | 1.02 | 0.602 | 0.696 | 0.569 | 0.826 | 0.752 | 0.486
16 | PIFEGYGLPHA [ACTA1_Y171_A172G_YF] | 0.806 | 0.469 | 0.5 | 0.628 | 0.451 | 0.744 | 0.866 | 0.701 | 0.642 | 0.836 | 0.641 | 0.872 | 0.547 | 0.612 | 0.581 | 0.516
17 | KGEDFYSVTCH [FHL1_Y149_C150S] | 1.47 | 0.806 | 0.632 | 0.849 | 0.942 | 3.47 | 1.35 | 5.87 | 3.19 | 1.13 | 4.71 | 0.899 | 3.96 | 0.688 | 0.706 | 0.47

Row | Sequence | phosphorylation enrichment (AncSZ) | phosphorylation enrichment (EPHB1) | phosphorylation enrichment (EPHB2) | phosphorylation enrichment (FGFR1) | phosphorylation enrichment (FGFR3) | phosphorylation enrichment (Fer (mouse)) | phosphorylation enrichment (Fes) | phosphorylation enrichment (Fyn) | phosphorylation enrichment (Hck) | phosphorylation enrichment (Jak2) | phosphorylation enrichment (MERTK) | phosphorylation enrichment (c-Abl (mouse)) | phosphorylation enrichment (c-Src) | SH2 binding enrichment (Grb2 SH2) | SH2 binding enrichment (SHP2-C SH2) | SH2 binding enrichment (c-Src SH2)
18 | ALKKPYSVLYK [RPF2_Y59_G60S] | 0.603 | 0.399 | 0.433 | 0.385 | 0.406 | 0.44 | 0.674 | 0.36 | 0.474 | 0.467 | 0.436 | 0.516 | 0.454 | 1.72 | 1.65 | 1.38
19 | SFPSTYRFERG [INPPL1_Y661_P659S_YF] | 0.538 | 0.345 | 0.394 | 0.411 | 0.538 | 0.427 | 0.652 | 0.39 | 0.479 | 0.724 | 0.392 | 0.644 | 0.569 | 0.828 | 0.655 | 0.466
20 | DNEFAYLKAII [HNF4A_Y288_YF] | 1.13 | 0.45 | 0.455 | 0.425 | 0.648 | 0.381 | 1.07 | 0.386 | 0.407 | 0.91 | 0.334 | 0.689 | 0.419 | 0.775 | 0.491 | 0.429
21 | LMLVLYGRIFL [HTR1A_Y215_R220L] | 1.11 | 1.11 | 0.692 | 0.851 | 0.968 | 0.745 | 1.93 | 0.433 | 0.654 | 1.28 | 0.651 | 0.996 | 0.778 | 1.16 | 0.776 | 0.556
22 | MSRDVYSIDFF [NTRK2_Y702_T704I_YF] | 1.02 | 1.23 | 1.17 | 1.61 | 1.2 | 1.16 | 1.05 | 8.38 | 4.17 | 0.889 | 7.45 | 0.652 | 6.79 | 1.03 | 0.809 | 0.656
23 | IKSSIYDNRKE [ARAP2_Y380] | 1.13 | 0.307 | 0.321 | 0.538 | 0.504 | 0.355 | 0.725 | 0.366 | 0.753 | 0.586 | 0.416 | 0.518 | 0.58 | 0.934 | 0.741 | 0.445
24 | EKMWTYMRSAE [GRIA4_Y695] | 1.04 | 0.573 | 0.62 | 0.409 | 0.602 | 0.359 | 1.01 | 0.433 | 0.432 | 0.836 | 0.299 | 0.81 | 0.404 | 0.842 | 0.726 | 0.442
25 | CNTIHYNYMCN [TP53_Y234_T230N] | 0.897 | 0.575 | 0.581 | 0.586 | 0.653 | 0.554 | 0.865 | 0.413 | 0.428 | 0.799 | 0.521 | 0.713 | 0.532 | 0.937 | 4.68 | 6.74
26 | EHEALYLEADL [CENPF_Y1920] | 1.66 | 0.57 | 0.84 | 1.73 | 1.8 | 1.2 | 1.34 | 0.653 | 0.715 | 1.12 | 0.77 | 0.938 | 0.986 | 0.845 | 0.56 | 0.57
27 | FRTPGYREVVI [TNS2_Y673_A670T_YF] | 0.703 | 0.418 | 0.446 | 0.45 | 0.6 | 0.473 | 0.814 | 0.411 | 0.43 | 0.615 | 0.546 | 0.597 | 0.504 | 1.35 | 0.901 | 0.607
28 | PSTYRYERGSR [INPPL1_Y663_P659S] | 0.718 | 0.663 | 0.511 | 0.641 | 0.588 | 0.474 | 0.59 | 0.721 | 0.661 | 0.475 | 0.561 | 0.446 | 0.546 | 0.814 | 0.492 | 0.495
29 | CTTIHNNFMCN [TP53_Y234_Y234N_YF] | 0.879 | 0.606 | 0.591 | 0.51 | 0.623 | 0.558 | 0.974 | 0.507 | 0.517 | 0.95 | 0.459 | 0.593 | 0.439 | 1.15 | 1.32 | 1.07
30 | RHLREYQDLLN [DES_Y388] | 0.93 | 0.621 | 1.12 | 0.61 | 0.641 | 0.533 | 1.19 | 0.483 | 0.464 | 0.807 | 0.491 | 0.888 | 0.41 | 1.25 | 0.872 | 2.29
31 | RKPDIYERLAS [MCM4_Y459] | 0.846 | 0.927 | 0.903 | 0.671 | 0.798 | 0.943 | 1.2 | 0.99 | 4.52 | 0.702 | 1.65 | 0.901 | 2.04 | 0.734 | 0.71 | 0.643
32 | SQPASYQRRLL [PPIG_Y320] | 0.394 | 0.313 | 0.337 | 0.472 | 0.396 | 0.286 | 0.451 | 0.53 | 0.253 | 0.35 | 0.316 | 0.301 | 0.365 | 0.729 | 0.54 | 0.428
33 | KVQVSYKGETK [HSPA1A_Y107] | 0.608 | 0.442 | 0.449 | 0.429 | 0.432 | 0.378 | 0.511 | 0.426 | 0.346 | 0.428 | 0.387 | 0.85 | 0.352 | 0.875 | 0.656 | 0.493

— the supplement of paper PMC10065799, “High-throughput profiling of sequence recognition by tyrosine kinases and SH2 domains using bacterial peptide display” (eLife, 2023)
